Experimental data taken from patent US20220160843A1 (priority 2019, published 2022).

Columns and labels:
[1] = tested on: carbapenem-resistant clinical strain, WC-452; assay: Checkerboard assay to examine synergy with antibiotics in CAA/HuS; assay type: cell-based, P. aeruginosa
[2] = tested on: carbapenem-resistant P. aeruginosa strains; assay: Resensitization of carbapenem-resistant clinical strains using carbapenems in combination with lysins; assay type: cell-based
Method: The checkerboard assays is based on a modification of the CLSI method for MIC determination by broth microdilution (26, 29). Checkerboards were constructed by first preparing columns of a 96-well polypropylene microtiter plate, in which each well had the same amount of antibiotic diluted 2-fold along the horizontal axis. […] Summation fractional inhibitory concentrations (ΣFICs) were calculated for each drug and the minimum ΣFIC value (ΣFICmin) was used to determine synergy. ΣFICs were calculated as follows: ΣFIC=FIC A+FIC B, where FIC A is the MIC of each antibiotic in the combination/MIC of each antibiotic alone, and FIC B is the MIC of each GN lysin in the combination/MIC of each GN lysin alone. The combination is considered synergistic when the ΣFIC is ≤0.5, strongly additive when the ΣFIC is >0.5 to <1, additive with the ΣFIC is 1−<2, and antagonistic when the ΣFIC is ≥2.
Up to seven carbapenem-resistant isolates were assessed. […] See Clinical and Laboratory Standards Institute (CLSI), CLSI. […] M100 Performance Standards for Antimicrobial Susceptibility Testing; 29th Edition. Clinical and Laboratory Standards Institute, Wayne, Pa.

[3] = tested on: human erythrocytes; assay type: cell-based
Method: The hemolytic activity of the GN lysins was measured as the amount of hemoglobin released by the lysis of human erythrocytes (30). Briefly, 3 ml of fresh human blood cells (hRBCs) obtained from pooled healthy donors (BioreclamationIVT) in a polycarbonate tube containing heparin was centrifuged at 1,000×g for 5 min at 4° C. The erythrocytes obtained were washed three times with phosphate-buffered saline (PBS) solution (pH 7.2) and resuspended in […]. […] Intact erythrocytes were pelleted by centrifugation at 1,000×g for 5 min at 4° C., and the supernatant was transferred to a new 96-well plate. The release of hemoglobin was monitored by measuring the absorbance at 570 nm.

[4] = tested on: P. aeruginosa strain ATCC 17647; assay: Minimal Biofilm Eradicating Concentration (MBEC), Calgary Biofilm Device; assay type: cell-based, Pseudomonas aeruginosa; conditions: 24 h biofilm, 24 h treatment; minimum concentration removing >95% of biofilm biomass (crystal violet)
Source text: All samples were examined in triplicate.

[5] = tested on: P. aeruginosa; assay: Minimal inhibitory concentration (MIC), modified CLSI broth microdilution in CAA or CAA/HuS; assay type: cell-based, Pseudomonas aeruginosa
[6] = tested on: P. aeruginosa; assay: Time-kill assay of GN lysin activity; assay type: cell-based, Pseudomonas aeruginosa; conditions: for Log10 CFU/mL T = 3 hr / Log10 CFU/mL T = l hr: lysin 10 μg/mL, T = 0 7.8; for Log10 CFU/mL T = 3 hr: buffer control 7.2, limit of detection 3.7; for Log10 CFU/mL T = l hr: buffer control 7.7
Method: All treatments were incubated at 37° C. with aeration.

[7] = HEPES buffer, ‡ indicates bactericidal activity

B1: GN123: Native lysin, GenBank YP_009217242.1, SEQ ID NO: 27 (protein)
chain: MTLLKKGDKGDAVKQLQQKLKDLGYTLGVDGNFGNGTDTVVRSFQTKMKLSVDGVVGNGTMSTIDSTLAGIKAWKTSVPFPATNKSRAMAMPTLTEIGRLTNVDPKLLATFCSIESAFDYTAKPYKPDGTVYSSAEGWFQFLDATWDDEVRKHGKQYSFPVDPGRSLRKDPRANGLMGAEFLKGNAAILRPVLGHEPSDTDLYLAHFMGAGGAKQFLMADQNKLAAELFPGPAKANPNIFYKSGNIARTLAEVYAVLDAKVAKHRA
modifications: Pseudomonas phage PhiPA3
FICI, Fosfomycin ([1]; lysin + fosfomycin): 0.250
FICI, Gentamicin ([1]; lysin + gentamicin): 0.375
FICI, Imipenem ([1]; lysin + imipenem): 0.188
FICI, Meropenem ([1]; lysin + meropenem): 0.125
FICI, Piperacillin ([1]; lysin + piperacillin): 0.500
GN123 Alone ([2]; isolate PA19, MIC of GN123 alone (imipenem checkerboard)): 8 µg/mL
GN123 Alone ([2]; isolate PA19, MIC of GN123 alone (meropenem checkerboard)): 8 µg/mL
GN123 Combination ([2]; isolate PA19, MIC of GN123 in combination with imipenem): 0.125 µg/mL
GN123 Combination ([2]; isolate PA19, MIC of GN123 in combination with meropenem): 0.25 µg/mL
FICI ([2]; isolate PA19, imipenem + GN123): 0.03
FICI ([2]; isolate PA19, meropenem + GN123): 0.046
GN123 Alone ([2]; isolate PA20, MIC of GN123 alone (imipenem checkerboard)): 16 µg/mL
GN123 Alone ([2]; isolate PA20, MIC of GN123 alone (meropenem checkerboard)): 16 µg/mL
GN123 Combination ([2]; isolate PA20, MIC of GN123 in combination with imipenem): 2 µg/mL
GN123 Combination ([2]; isolate PA20, MIC of GN123 in combination with meropenem): 1 µg/mL
FICI ([2]; isolate PA20, imipenem + GN123): 0.188
FICI ([2]; isolate PA20, meropenem + GN123): 0.094
GN123 Alone ([2]; isolate PA21, MIC of GN123 alone (imipenem checkerboard)): 8 µg/mL
GN123 Alone ([2]; isolate PA21, MIC of GN123 alone (meropenem checkerboard)): 8 µg/mL
GN123 Combination ([2]; isolate PA21, MIC of GN123 in combination with imipenem): 1 µg/mL
GN123 Combination ([2]; isolate PA21, MIC of GN123 in combination with meropenem): 1 µg/mL
FICI ([2]; isolate PA21, imipenem + GN123): 0.141
FICI ([2]; isolate PA21, meropenem + GN123): 0.156
GN123 Alone ([2]; isolate PA22, MIC of GN123 alone (imipenem checkerboard)): 16 µg/mL
GN123 Alone ([2]; isolate PA22, MIC of GN123 alone (meropenem checkerboard)): 16 µg/mL
GN123 Combination ([2]; isolate PA22, MIC of GN123 in combination with imipenem): 1 µg/mL
GN123 Combination ([2]; isolate PA22, MIC of GN123 in combination with meropenem): 1 µg/mL
FICI ([2]; isolate PA22, imipenem + GN123): 0.188
FICI ([2]; isolate PA22, meropenem + GN123): 0.125
GN123 Alone ([2]; isolate PA23, MIC of GN123 alone (imipenem checkerboard)): 8 µg/mL
GN123 Alone ([2]; isolate PA23, MIC of GN123 alone (meropenem checkerboard)): 8 µg/mL
GN123 Combination ([2]; isolate PA23, MIC of GN123 in combination with imipenem): 2 µg/mL
GN123 Combination ([2]; isolate PA23, MIC of GN123 in combination with meropenem): 1 µg/mL
FICI ([2]; isolate PA23, imipenem + GN123): 0.281
FICI ([2]; isolate PA23, meropenem + GN123): 0.156
GN123 Alone ([2]; isolate PA24, MIC of GN123 alone (imipenem checkerboard)): 16 µg/mL
GN123 Alone ([2]; isolate PA24, MIC of GN123 alone (meropenem checkerboard)): 16 µg/mL
GN123 Combination ([2]; isolate PA24, MIC of GN123 in combination with imipenem): 2 µg/mL
GN123 Combination ([2]; isolate PA24, MIC of GN123 in combination with meropenem): 0.5 µg/mL
FICI ([2]; isolate PA24, imipenem + GN123): 0.188
FICI ([2]; isolate PA24, meropenem + GN123): 0.094
GN123 Alone ([2]; isolate WC-452, MIC of GN123 alone (imipenem checkerboard)): 16 µg/mL
GN123 Alone ([2]; isolate WC-452, MIC of GN123 alone (meropenem checkerboard)): 16 µg/mL
GN123 Combination ([2]; isolate WC-452, MIC of GN123 in combination with imipenem): 2 µg/mL
GN123 Combination ([2]; isolate WC-452, MIC of GN123 in combination with meropenem): 1 µg/mL
FICI ([2]; isolate WC-452, imipenem + GN123): 0.188
FICI ([2]; isolate WC-452, meropenem + GN123): 0.125
resensitization of carbapenem-resistant isolates to IPM and MEM ([2]; synergistic combinations with imipenem or meropenem, breakpoints ≤2 sensitive, 4 intermediate, ≥8 resistant): reductions of IPM and MEM MICS to below breakpoint values
hemolytic activity [3]: no hemolytic activity whatsoever
MBEC [4]: 4 µg/mL
MIC (μg/mL) in CAA ([5]; CAA media): 2 µg/mL
MIC (μg/mL in CAA/HuS) ([5]; CAA supplemented with 25% human serum): 128 µg/mL
bactericidal activity in the time-kill assay format ([6]; 3-hour timepoint, 10 μg/mL, in either CAA/HuS or HEPES buffer): bactericidal activity
Log10 CFU/mL T = 3 hr ([6]; CAA/HuS, ‡ indicates bactericidal activity): <3.7‡ Log10 CFU/mL
Log10 CFU/mL T = l hr ([6]; CAA/HuS): 6.7 Log10 CFU/mL
Log10 CFU/mL T = 3 hr [6, 7]: <3.7‡ Log10 CFU/mL
Log10 CFU/mL T = l hr [6, 7]: 5.6 Log10 CFU/mL
